Assay results published in PMC6126924, “Arabidopsis formin 2 regulates cell-to-cell trafficking by capping and stabilizing actin filaments at plasmodesmata” (eLife, 2018).

Target: the molecule itself
Test: SEC; Superdex 200 Increase 10/300; 100 mM Tris-HCl pH 8.5, 150 mM NaCl, 1 mM DTT, 5% glycerol; 0.4 mL/min; His-tag fusion proteins

B1: 6His-AtFH2-FH2 (domain or fragment, Arabidopsis thaliana, UniProt O22824 438-864, looked up)
chain: EKKVETMKPKLKTLHWDKVRASSSRVMVWDQIKSNSFQVNEEMIETLFKVNDPTSRTRDGVVQSVSQENRFLDPRKSHNIAILLRALNVTADEVCEALIEGNSDTLGPELLECLLKMAPTKEEEDKLKELKDDDDGSPSKIGPAEKFLKALLNIPFAFKRIDAMLYIVKFESEIEYLNRSFDTLEAATGELKNTRMFLKLLEAVLKTGNRMNIGTNRGDAHAFKLDTLLKLVDIKGADGKTTLLHFVVQEIIKFEGARVPFTPSQSHIGDNMAEQSAFQDDLELKKLGLQVVSGLSSQLINVKKAAAMDSNSLINETAEIARGIAKVKEVITELKQETGVERFLESMNSFLNKGEKEITELQSHGDNVMKMVKEVTEYFHGNSETHPFRIFAVVRDFLTILDQVCKEVGRVNERTVYGSMPLHSPSN
notes: Arabidopsis thaliana Formin 2 (AtFH2, At2g43800), FH2 domain; cloned in pET23a; Mainly a dimer by size exclusion chromatography (about 100 kDa); source: E. coli Tuner (DE3) pLysS, purified (Ni-NTA)
- stoichiometry N: 2
